Reference: the supplement of paper PMC9112550, “Optimization of the antimicrobial peptide Bac7 by deep mutational scanning” (BMC Biology, 2022)

System: Escherichia coli TOP10
Assay: shrunken log2 fold change of peptide-encoding DNA abundance (4.5 h post-induction vs induction); higher = less antimicrobial activity (less host growth inhibition)
Conditions: time post-induction: 4.5 h; library: site-saturation at positions 5, 18, 19, 20
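Also: peptides expressed intracellularly from a pBAD plasmid library in pooled LB shake-flask culture, induced with 0.3% L-arabinose, DNA abundance read by NGS, three biological replicates, DESeq2 with apeglm shrinkage.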

| Sequence | shrunken log2 fold change |
| --- | --- |
| RRIRGRPPRLPRPRPRPWDFPRP | 0.328 |
| RRIRIRPPRLPRPRPRPYMWPRP | -0.198 |
| RRIRIRPPRLPRPRPRPVAAPRP | 0.176 |
| RRIRFRPPRLPRPRPRPQTLPRP | -0.399 |
| RRIRLRPPRLPRPRPRPMWRPRP | 0.194 |
| RRIRNRPPRLPRPRPRPISFPRP | -0.0972 |
| RRIRLRPPRLPRPRPRPVFRPRP | 0.0694 |
| RRIRTRPPRLPRPRPRPFIEPRP | -0.553 |
| RRIRFRPPRLPRPRPRPVEKPRP | 0.149 |
| RRIRWRPPRLPRPRPRPTEGPRP | 0.0765 |
| RRIRPRPPRLPRPRPRPHPGPRP | 2.42 |
| RRIRDRPPRLPRPRPRPMLVPRP | 0.116 |
| RRIRMRPPRLPRPRPRPVSNPRP | 0.499 |
| RRIRDRPPRLPRPRPRPFLLPRP | 0.0901 |
| RRIRSRPPRLPRPRPRPHQAPRP | -0.161 |
| RRIRPRPPRLPRPRPRPIDIPRP | -0.252 |
| RRIRTRPPRLPRPRPRPPQSPRP | 0.441 |
| RRIRWRPPRLPRPRPRPQCVPRP | -0.0311 |
| RRIRSRPPRLPRPRPRPFMSPRP | 0.00606 |
| RRIRDRPPRLPRPRPRPKGAPRP | 0.368 |
| RRIRFRPPRLPRPRPRPCKAPRP | -0.0248 |
| RRIRLRPPRLPRPRPRPSCNPRP | -0.661 |

| Sequence | shrunken log2 fold change |
| --- | --- |
| RRIRARPPRLPRPRPRPDHPPRP | 0.297 |
| RRIRDRPPRLPRPRPRPPLFPRP | 0.5 |
| RRIRNRPPRLPRPRPRPVSMPRP | -0.0312 |
| RRIRERPPRLPRPRPRPNLLPRP | 0.107 |
| RRIRVRPPRLPRPRPRPISPPRP | 0.129 |
| RRIRFRPPRLPRPRPRPCSNPRP | -0.0316 |
| RRIRSRPPRLPRPRPRPRGAPRP | 0.737 |
| RRIRVRPPRLPRPRPRPVYRPRP | 0.132 |
| RRIRNRPPRLPRPRPRPSYGPRP | -0.156 |
| RRIRWRPPRLPRPRPRPLLMPRP | 0.284 |
| RRIRDRPPRLPRPRPRPMRMPRP | 0.199 |
| RRIRGRPPRLPRPRPRPDWDPRP | 0.596 |
| RRIRSRPPRLPRPRPRPHSLPRP | 0.0616 |
| RRIRPRPPRLPRPRPRPQDWPRP | 0.0908 |
| RRIRVRPPRLPRPRPRPTLFPRP | -0.0123 |
| RRIRHRPPRLPRPRPRPLENPRP | 0.00854 |
| RRIRMRPPRLPRPRPRPANSPRP | 0.0248 |
| RRIRDRPPRLPRPRPRPIIKPRP | -0.0129 |
| RRIRKRPPRLPRPRPRPGIDPRP | 0.792 |
| RRIRRRPPRLPRPRPRPCERPRP | 0.137 |
| RRIRARPPRLPRPRPRPPPLPRP | 1.84 |
| RRIRQRPPRLPRPRPRPFKWPRP | -0.185 |

| Sequence | shrunken log2 fold change |
| --- | --- |
| RRIRQRPPRLPRPRPRPVTCPRP | 0.0138 |
| RRIRNRPPRLPRPRPRPHCWPRP | 0.0498 |
| RRIRPRPPRLPRPRPRPYTLPRP | -0.54 |
| RRIRARPPRLPRPRPRPITVPRP | -0.201 |
| RRIRGRPPRLPRPRPRPLEKPRP | 0.725 |
| RRIRKRPPRLPRPRPRPYNHPRP | -0.0988 |
| RRIRLRPPRLPRPRPRPWPFPRP | -0.0764 |
| RRIRARPPRLPRPRPRPKNAPRP | 0.323 |
| RRIRLRPPRLPRPRPRPCQEPRP | -0.0108 |
| RRIRGRPPRLPRPRPRPCCFPRP | 0.773 |
| RRIRGRPPRLPRPRPRPSALPRP | 1.38 |
| RRIRQRPPRLPRPRPRPSSIPRP | -0.0146 |
| RRIRKRPPRLPRPRPRPRHLPRP | 0.218 |
| RRIRNRPPRLPRPRPRPWNNPRP | -0.15 |
| RRIRNRPPRLPRPRPRPWVHPRP | -0.288 |
| RRIRLRPPRLPRPRPRPQIPPRP | -0.273 |
| RRIRHRPPRLPRPRPRPSNHPRP | -0.461 |
| RRIRDRPPRLPRPRPRPCIEPRP | -0.158 |
| RRIRFRPPRLPRPRPRPFSHPRP | -1.36 |
| RRIRQRPPRLPRPRPRPCDQPRP | 0.0849 |
| RRIRVRPPRLPRPRPRPGDSPRP | -0.0395 |
| RRIRDRPPRLPRPRPRPMYVPRP | -0.243 |

| Sequence | shrunken log2 fold change |
| --- | --- |
| RRIRFRPPRLPRPRPRPMTGPRP | -0.0757 |
| RRIRKRPPRLPRPRPRPPYNPRP | -0.149 |
| RRIRTRPPRLPRPRPRPKHIPRP | -0.823 |
| RRIRFRPPRLPRPRPRPNGWPRP | 0.0579 |
| RRIRRRPPRLPRPRPRPSSNPRP | -0.148 |
| RRIRPRPPRLPRPRPRPYIHPRP | -0.946 |
| RRIRFRPPRLPRPRPRPDGQPRP | -0.0411 |
| RRIRTRPPRLPRPRPRPPGFPRP | 0.287 |
| RRIRTRPPRLPRPRPRPRGDPRP | 0.409 |
| RRIRERPPRLPRPRPRPIHEPRP | 0.0218 |
| RRIRWRPPRLPRPRPRPGYYPRP | -0.125 |
| RRIRLRPPRLPRPRPRPPGKPRP | -0.0183 |
| RRIRNRPPRLPRPRPRPKISPRP | -0.484 |
| RRIRKRPPRLPRPRPRPIRAPRP | 0.14 |
| RRIRKRPPRLPRPRPRPEEVPRP | 2.83 |
| RRIRLRPPRLPRPRPRPYVSPRP | -0.0356 |
| RRIRNRPPRLPRPRPRPTPWPRP | 0.161 |
| RRIRGRPPRLPRPRPRPPYHPRP | 0.0679 |
| RRIRTRPPRLPRPRPRPQRLPRP | -0.223 |
| RRIRTRPPRLPRPRPRPFFCPRP | -0.0401 |
| RRIRTRPPRLPRPRPRPCWRPRP | 0.156 |
| RRIRFRPPRLPRPRPRPDGPPRP | 0.0689 |

| Sequence | shrunken log2 fold change |
| --- | --- |
| RRIRPRPPRLPRPRPRPLNCPRP | -0.227 |
| RRIRKRPPRLPRPRPRPINQPRP | -0.166 |
| RRIRTRPPRLPRPRPRPVQNPRP | 0.138 |
| RRIRKRPPRLPRPRPRPGTHPRP | 0.213 |
| RRIRTRPPRLPRPRPRPTGYPRP | 0.000642 |
| RRIRFRPPRLPRPRPRPFPSPRP | -0.179 |
| RRIRDRPPRLPRPRPRPFPTPRP | 0.0231 |
| RRIRMRPPRLPRPRPRPKSEPRP | 0.0246 |
| RRIRARPPRLPRPRPRPVGCPRP | 0.768 |
| RRIRRRPPRLPRPRPRPFLQPRP | 0.117 |
| RRIRYRPPRLPRPRPRPLSEPRP | -0.215 |
| RRIRIRPPRLPRPRPRPTCGPRP | -0.0476 |
| RRIRQRPPRLPRPRPRPLNHPRP | 0.133 |
| RRIRRRPPRLPRPRPRPIDMPRP | 0.0233 |
| RRIRSRPPRLPRPRPRPGREPRP | 0.325 |
| RRIRWRPPRLPRPRPRPEMNPRP | 0.753 |
| RRIRDRPPRLPRPRPRPRSAPRP | 0.321 |
| RRIRERPPRLPRPRPRPCIWPRP | -0.0915 |
| RRIRERPPRLPRPRPRPHYIPRP | -0.133 |
| RRIRCRPPRLPRPRPRPNAKPRP | 0.0347 |
| RRIRGRPPRLPRPRPRPYDQPRP | 0.0878 |
